Source: patent US20240252592A1 (TIANJIN INSTITUTE OF PHARMACEUTICAL RESEARCH, published 2024)
Numbered stars: 1 amine (or outer) side, 2 acyl side, 3 side chain; on linkers, the order of the positions; unused ones are H or OH. Square brackets hold non-standard residues; d marks the D form. Side chains are listed from the residue outwards. Ends that are not written are not given here. * marks the point of attachment. OC17H32COOH = fatty diacid acyl group -OC17H32COOH on the linker; C20 diacid = O=C(O)CCCCCCCCCCCCCCCCCCC(=O)*; C18 diacid = O=C(O)CCCCCCCCCCCCCCCCC(=O)*; γGlu = O=C(O)[C@H](CCC(=O)[*:2])N[*:1]; Palmitoyl = CCCCCCCCCCCCCCCC(=O)*; AEEA = NCCOCCOCC(=O)O; Aib = CC(C)(N)C(=O)O

Key:
human GLP-1 receptor = human GLP-1 receptor (human, UniProt P43220 24-463); assay: cell-based or functional assay
GC receptor = assay: cell-based or functional assay

Binder	EC50 of GLP-1 receptor mediated cAMP production (human GLP-1 receptor) [nM]	EC50 of GC receptor mediated cAMP production (GC receptor) [nM]
H[Aib]QGTFTSDYSKYLEERKAK([AEEA-AEEA-γGlu-C20 diacid])EFIAWLEGGPSSG-NH2 (not fully specified; printed as HAibQGTFTSDYSKYLEERKAK***EFIAWLEGGPSSG-Amid) [Compound 68]	0.13	0.314
H[Aib]QGTFTSDYSKYLDERKAK([γGlu-γGlu-Palmitoyl])EFVEWLEGGPSSG-NH2 (not fully specified; printed as HAibQGTFTSDYSKYLDERKAK*EFVEWLEGGPSSG-Amid) [Compound 69]	0.778	0.261
H[Aib]QGTFTSDYSKYLDEKRAK([γGlu-γGlu-Palmitoyl])EFIAWLEAGGPSSG-NH2 (not fully specified; printed as HAibQGTFTSDYSKYLDEKRAK*EFIAWLEAGGPSSG-Amid) [Compound 57]	0.094	0.081
H[Aib]QGTFTSDYSKYLEERKAK([AEEA-AEEA-γGlu-C18 diacid])EFIAWLEAGGPSSG-NH2 (not fully specified; printed as HAibQGTFTSDYSKYLEERKAK**EFIAWLEAGGPSSG-Amid) [Compound 44]	0.371	0.219
H[Aib]QGTFTSDK([AEEA-AEEA-γGlu-C18 diacid])SKYLEERAAKEFIAWLEAGGPSSG-NH2 (not fully specified; printed as HAibQGTFTSDK**SKYLEERAAKEFIAWLEAGGPSSG-Amid) [Compound 27]	0.011	0.014
HXQGTFTSDKSKYLXERAAKEFIXWLEAGGPSSG (not fully specified; Lys 10 side chain -Ado-Ado-γE-OC17H32COOH; C-terminal amide) [Compound 36]	0.072	0.069
HXQGTFTSDKSKYLXERAAKEFIXWLEAGGPSSG (not fully specified; Lys 10 side chain -Ado-Ado-γE-OC17H32COOH; C-terminal amide) [Compound 79]	0.033	0.025
HXQGTFTSDKSKYLXERAAKEFIXWLEAGGPSSG (HELM PEPTIDE1{H.[Aib].Q.G.T.F.T.S.D.K.S.K.Y.L.E.E.R.A.A.K.E.F.I.A.W.L.E.A.G.G.P.S.S.G.[am]}|PEPTIDE2{[CCCCCCCCCCCCCCCC(=O)[*:2]].[gGlu].[gGlu]}$PEPTIDE1,PEPTIDE2,10:R3-3:R2$$$V2.0; N-terminus assumed; SMILES CCCCCCCCCCCCCCCC(=O)N[C@@H](CCC(=O)N[C@@H](CCC(=O)NCCCC[C@H](NC(=O)[C@H](CC(=O)O)NC(=O)[C@H](CO)NC(=O)[C@@H](NC(=O)[C@H](Cc1ccccc1)NC(=O)[C@@H](NC(=O)CNC(=O)[C@H](CCC(N)=O)NC(=O)C(C)(C)NC(=O)[C@@H](N)Cc1c[nH]cn1)[C@@H](C)O)[C@@H](C)O)C(=O)N[C@@H](CO)C(=O)N[C@@H](CCCCN)C(=O)N[C@@H](Cc1ccc(O)cc1)C(=O)N[C@@H](CC(C)C)C(=O)N[C@@H](CCC(=O)O)C(=O)N[C@@H](CCC(=O)O)C(=O)N[C@@H](CCCNC(=N)N)C(=O)N[C@@H](C)C(=O)N[C@@H](C)C(=O)N[C@@H](CCCCN)C(=O)N[C@@H](CCC(=O)O)C(=O)N[C@@H](Cc1ccccc1)C(=O)N[C@H](C(=O)N[C@@H](C)C(=O)N[C@@H](Cc1c[nH]c2ccccc12)C(=O)N[C@@H](CC(C)C)C(=O)N[C@@H](CCC(=O)O)C(=O)N[C@@H](C)C(=O)NCC(=O)NCC(=O)N1CCC[C@H]1C(=O)N[C@@H](CO)C(=O)N[C@@H](CO)C(=O)NCC(N)=O)[C@@H](C)CC)C(=O)O)C(=O)O) [Compound 1]	0.0654	0.0574
H[Aib]QGTFTSDYSKYLEEKRAK([AEEA-AEEA-γGlu-C18 diacid])EFVEWLEAGGPSSG-NH2 (not fully specified; printed as HAibQGTFTSDYSKYLEEKRAK**EFVEWLEAGGPSSG-Amid) [Compound 54]	0.219	0.274
HXQGTFTSDYSKYLEEKRAKEFVEWLLEAGGPSSG (HELM PEPTIDE1{H.[Aib].Q.G.T.F.T.S.D.Y.S.K.Y.L.E.E.K.R.A.K.E.F.V.E.W.L.L.E.A.G.G.P.S.S.G.[am]}|PEPTIDE2{[CCCCCCCCCCCCCCCC(=O)[*:2]].[gGlu].[gGlu]}$PEPTIDE1,PEPTIDE2,20:R3-3:R2$$$V2.0; N-terminus assumed; SMILES CCCCCCCCCCCCCCCC(=O)N[C@@H](CCC(=O)N[C@@H](CCC(=O)NCCCC[C@H](NC(=O)[C@H](C)NC(=O)[C@H](CCCNC(=N)N)NC(=O)[C@H](CCCCN)NC(=O)[C@H](CCC(=O)O)NC(=O)[C@H](CCC(=O)O)NC(=O)[C@H](CC(C)C)NC(=O)[C@H](Cc1ccc(O)cc1)NC(=O)[C@H](CCCCN)NC(=O)[C@H](CO)NC(=O)[C@H](Cc1ccc(O)cc1)NC(=O)[C@H](CC(=O)O)NC(=O)[C@H](CO)NC(=O)[C@@H](NC(=O)[C@H](Cc1ccccc1)NC(=O)[C@@H](NC(=O)CNC(=O)[C@H](CCC(N)=O)NC(=O)C(C)(C)NC(=O)[C@@H](N)Cc1c[nH]cn1)[C@@H](C)O)[C@@H](C)O)C(=O)N[C@@H](CCC(=O)O)C(=O)N[C@@H](Cc1ccccc1)C(=O)N[C@H](C(=O)N[C@@H](CCC(=O)O)C(=O)N[C@@H](Cc1c[nH]c2ccccc12)C(=O)N[C@@H](CC(C)C)C(=O)N[C@@H](CC(C)C)C(=O)N[C@@H](CCC(=O)O)C(=O)N[C@@H](C)C(=O)NCC(=O)NCC(=O)N1CCC[C@H]1C(=O)N[C@@H](CO)C(=O)N[C@@H](CO)C(=O)NCC(N)=O)C(C)C)C(=O)O)C(=O)O) [Compound 26]	0.193	0.197
H[Aib]QGTFTSDYSKYLDEKRAK([AEEA-AEEA-γGlu-C18 diacid])EFIAWLEAGGPSSG-NH2 (not fully specified; printed as HAibQGTFTSDYSKYLDEKRAK**EFIAWLEAGGPSSG-Amid) [Compound 50]	0.119	0.048
H[Aib]QGTFTSDYSKYLDERKAK([AEEA-AEEA-γGlu-C18 diacid])EFVEWLEAGGPSSG-NH2 (not fully specified; printed as HAibQGTFTSDYSKYLDERKAK**EFVEWLEAGGPSSG-Amid) [Compound 42]	0.52	0.024
H[Aib]QGTFTSDYSKYLEERAAK([AEEA-AEEA-γGlu-C18 diacid])EFVEWLEGGPSSG-NH2 (not fully specified; printed as HAibQGTFTSDYSKYLEERAAK**EFVEWLEGGPSSG-Amid) [Compound 32]	1.01	0.077
H[Aib]QGTFTSDYSKYLEEKRAK([AEEA-AEEA-γGlu-C18 diacid])EFVAWLEAGGPSSG-NH2 (not fully specified; printed as HAibQGTFTSDYSKYLEEKRAK**EFVAWLEAGGPSSG-Amid) [Compound 53]	0.532	0.316
H[Aib]QGTFTSDYSKYLEERKAK([γGlu-γGlu-Palmitoyl])EFVEWLEGGPSSG-NH2 (not fully specified; printed as HAibQGTFTSDYSKYLEERKAK*EFVEWLEGGPSSG-Amid) [Compound 62]	0.313	0.156
H[Aib]QGTFTSDYSKYLDERKAK([AEEA-AEEA-γGlu-OC17H32COOH])EFIEWLEGGPSSG-NH2 (not fully specified; printed as HAibQGTFTSDYSKYLDERKAK**EFIEWLEGGPSSG-Amid) [Compound 66]	0.051	0.058
H[Aib]QGTFTSDYSKYLEEKRAK([AEEA-AEEA-γGlu-C18 diacid])EFVAWLEGGPSSG-NH2 (not fully specified; printed as HAibQGTFTSDYSKYLEEKRAK**EFVAWLEGGPSSG-Amid) [Compound 74]	0.842	0.725
H[Aib]QGTFTSDYSKYLEEKRAK([γGlu-γGlu-Palmitoyl])EFVEWLEGGPSSG-NH2 (not fully specified; printed as HAibQGTFTSDYSKYLEEKRAK*EFVEWLEGGPSSG-Amid) [Compound 76]	0.22	0.191
HSQGTFTSDYSKYLDERAAK([AEEA-AEEA-γGlu-C18 diacid])EFIAWLEGGPSSG-NH2 (not fully specified; printed as HSQGTFTSDYSKYLDERAAK**EFIAWLEGGPSSG-Amid) [Compound 38]	0.716	0.102
